Measured values reported in the supplement of paper PMC10899765.

How the values were obtained:
Conditions in all cases: 20 nM; 72 h
MCF10A [1] = assay: 5+ nucleoli phenotype percent effect (relative to siNT 0% and siKIF11 100%); higher = more cells with five or more nucleoli
Experimental: (§1)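 After 72 h, cells were fixed and stained with Hoechst and anti-fibrillarin, and nucleoli per nucleus were counted with CellProfiler. Values are plate-adjusted percent effect for the one-nucleolus and 5+ nucleoli phenotypes, normalised to siNT (0%) and to the positive controls siNOL11 or siKIF11 (100%), as the mean of biological triplicates. Percent viability is the nuclei count relative to siNT.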

MCF10A [2] = assay: percent viability (nuclei count relative to siNT); higher = more viable cells
Experimental: as §1

MCF10A [3] = assay: one-nucleolus phenotype percent effect (relative to siNT 0% and siNOL11 100%); higher = more cells with one nucleolus (ribosome biogenesis inhibition)
Experimental: as §1

Row | Sequence | 5+ nucleoli phenotype percent effect (MCF10A [1]) | percent viability (MCF10A [2]) | one-nucleolus phenotype percent effect (MCF10A [3])
1 | UGUAACAGCAACUCCAUGUGGA [hsa-miR-194-5p] | -7.22% | 84.3% | 8.64%
2 | UGUCUUACUCCCUCAGGCACAU [hsa-miR-550a-3p] | -24% | 60.2% | 15.4%
3 | GAGCUUGGUCUGUAGCGGUU [hsa-miR-4453] | -29.1% | 9.97% | 33.6%
4 | CGGGGGCGGGGCCGAAGCGCG [hsa-miR-1237-5p] | 45.4% | 85.4% | -22%
5 | ACUUGUAUGCUAGCUCAGGUAG [hsa-miR-643] | 68.8% | 165% | -31.1%
6 | CGAGGGCAUUUCAUGAUGCAGGC [hsa-miR-3616-3p] | -22% | 24.6% | 43.6%
7 | CGGGGCAGCUCAGUACAGGAU [hsa-miR-486-3p] | -5.42% | 10.1% | 47.2%
8 | CAAAAACUGCAGUUACUUUUGC [hsa-miR-548ah-3p] | 63.6% | 144% | -24.8%
9 | UCUAUUCCCCACUCUCCCCAG [hsa-miR-6731-3p] | -13.6% | 32.5% | -0.0733%
10 | GCAGCAUUCAUGUCCC [hsa-miR-4310] | 17.2% | 62.6% | -11%
11 | CUCCAGAGGGAUGCACUUUCU [hsa-miR-525-5p] | -22.1% | 36.5% | 20.6%
12 | ACAAGGUGUGCAUGCCUGACC [hsa-miR-4761-5p] | -24.8% | 18.1% | 53.7%
13 | AUACACAUACACGCAACACACAU [hsa-miR-466] | -1.51% | 38.7% | -17.2%
14 | UGUCCUCUGUUCCUCAG [hsa-miR-6852-3p] | 9.01% | 17.2% | 43.6%
15 | AAAACGGUGAGAUUUUGUUUU [hsa-miR-553] | 65.7% | 103% | -24.2%
16 | CUUCUUGUGCUCUAGGAUUGU [hsa-miR-578] | -13.1% | 32.6% | 19.6%
17 | UGACUGCCUCACUGACCACUU [hsa-miR-5002-3p] | -20.8% | 50.5% | -1.84%
18 | AGGGGGCGGGCUCCGGCG [hsa-miR-4488] | 8.35% | 70.5% | -5.44%
19 | ACACCCUCUUUCCCUACCGCC [hsa-miR-6865-3p] | 40.5% | 86.3% | -26%
20 | CGCACCUGCCUCUCACCCACAG [hsa-miR-6804-3p] | 33.2% | 74.2% | -33.9%

Row | Sequence | 5+ nucleoli phenotype percent effect (MCF10A [1]) | percent viability (MCF10A [2]) | one-nucleolus phenotype percent effect (MCF10A [3])
21 | CCAGAGCAGCCUGCGGUAACAGU [hsa-miR-6501-3p] | -17.2% | 35.1% | 1.17%
22 | AAUAUUAUACAGUCAACCUCU [hsa-miR-656] | 6.28% | 66.6% | 3.93%
23 | GGGCUCACAUCACCCCAU [hsa-miR-4284] | 8.32% | 40.5% | -1.42%
24 | UAGACCAUCUUUCUAGAGUAU [hsa-miR-6502-3p] | -0.273% | 102% | -0.125%
25 | UUAAGACUUGCAGUGAUGUUU [hsa-miR-499a-5p] | -1.56% | 102% | 5.05%
26 | AAUAAUACAUGGUUGAUCUUU [hsa-miR-369-3p] | 11.7% | 162% | -9.36%
27 | UGCCUUCCUGUCUGUG [hsa-miR-4297] | -10.3% | 20.9% | 16.6%
28 | CGGGGUCGGCGGCGACGUG [hsa-miR-7704] | 9.03% | 38.3% | -0.45%
29 | GACCGAGAGGGCCUCGGCUGU [hsa-miR-4523] | 18.2% | 67.7% | -18%
30 | GCUGGUCUGCGUGGUGCUCGG [hsa-miR-3663-5p] | 52.4% | 123% | -23.3%
31 | ACACUUGUUGGGAUGACCUGC [hsa-miR-6500-3p] | -37.8% | 23.8% | 22.5%
32 | AUGGAGAUAGAUAUAGAAAU [hsa-miR-620] | -31.1% | 62.9% | 24%
33 | CGGGCAUGCUGGGAGAGACUUU [hsa-miR-6862-5p] | -13% | 21.6% | 31.7%
34 | UGUGUACACACGUGCCAGGCGCU [hsa-miR-3177-5p] | 61.9% | 131% | -22.2%
35 | GGAUGGAGGAGGGGUCU [hsa-miR-4534] | 31% | 46.8% | -5.6%
36 | CAAAGAAUUCUCCUUUUGGGCU [hsa-miR-186-5p] | 42.9% | 59.3% | -14.6%
37 | UUUGGCACUAGCACAUUUUUGCU [hsa-miR-96-5p] | 16.6% | 28.4% | 19.4%
38 | CUCCCACAUGCAGGGUUUGCA [hsa-miR-188-3p] | 25% | 57.7% | -6.75%
39 | GGGCCUCUCUUGUCAUCCUGCAG [hsa-miR-6744-3p] | 49.2% | 81.6% | -21.1%
40 | CAGAACAGGAGCAUAGAAAGGC [hsa-miR-4773] | 22.9% | 43.7% | -20.2%

Row | Sequence | 5+ nucleoli phenotype percent effect (MCF10A [1]) | percent viability (MCF10A [2]) | one-nucleolus phenotype percent effect (MCF10A [3])
41 | ACCGAAGACUGUGCGCUAAUCU [hsa-miR-4671-5p] | 14.8% | 99.3% | -20.7%
42 | UGUGUCCCAUUAUUGGUGAUU [hsa-miR-3657] | -31.6% | 46.6% | 32.2%
43 | CUGGGUUGGGCUGGGCUGGG [hsa-miR-4507] | -11.1% | 28.4% | -1.41%
44 | UGGCCCAAGACCUCAGACC [hsa-miR-7155-3p] | 18.5% | 35.1% | 11.3%
45 | CGGGAGCUGGGGUCUGCAGGU [hsa-miR-6726-5p] | 58.1% | 73% | -17.2%
46 | UUAAUAUCGGACAACCAUUGU [hsa-miR-889] | 0.0778% | 108% | -0.642%
47 | AGGGGUGUGGAAAGAGGCAGAACA [hsa-miR-6747-5p] | 37.7% | 40% | -4.28%
48 | UGCCCUGCCUGUUUUCUCCUUU [hsa-miR-3173-5p] | 35.2% | 148% | -24.3%
49 | AUGAGACUCAUGUAAAACAUCUU [hsa-miR-3672] | -24.8% | 52.6% | 34.3%
50 | AAUGUGGACUGGUGUGACCAAA [hsa-miR-4491] | 20.6% | 45.4% | -0.704%
51 | AAAGGAUUCUGCUGUCGGUCCCACU [hsa-miR-541-5p] | -28.2% | 51.1% | 12.6%
52 | AGCCCCCUGGCCCCAAACCC [hsa-miR-4313] | 6.68% | 38.7% | -4.86%
53 | UUUGGCAAUGGUAGAACUCACACU [hsa-miR-182-5p] | 13.1% | 22.8% | 25%
54 | UGAGCCGAGCUGAGCUUAGCUG [hsa-miR-4537] | -4.47% | 73.5% | -6.98%
55 | AGGCGGGGCGCCGCGGGACCGC [hsa-miR-663a] | 2.91% | 62.8% | 0.191%
56 | GUCACUGAUGUCUGUAGCUGAG [hsa-miR-4420] | 1.76% | 87.4% | -18.2%
57 | AACUGUUUGCAGAGGAAACUGA [hsa-miR-452-5p] | 28.4% | 103% | -22.3%
58 | AAGCUCAGGUUUGAGAACUGCUGA [hsa-miR-6854-5p] | -24.5% | 57.3% | 18.3%
59 | ACUGGGAUGUCACUGAAUAUGGU [hsa-miR-6506-5p] | -3.32% | 28.3% | 25%
60 | UGAGAACUGAAUUCCAUAGGCU [hsa-miR-146b-5p] | -25.8% | 52.1% | 0.774%
